Common to all, as to assay: SPR, Fab over captured mutant LAG-3-Fc
On the technique in general: Surface plasmon resonance follows binding to a sensor surface in real time, without labels.

Experiment [1] addresses human LAG-3 domain 1-2 Fc fusion, point mutation #33 P86A (human) (UniProt P18627).
In experiment [2] the target is human LAG-3 domain 1-2 Fc fusion, point mutation #18 P67A (human) (UniProt P18627).
The target in experiment [3] is human LAG-3 domain 1-2 Fc fusion, point mutation #69 R129A (human) (UniProt P18627).
human LAG-3 domain 1-2 Fc fusion, point mutation #69 R129A (human), sequence (P18627 23-266 R129A): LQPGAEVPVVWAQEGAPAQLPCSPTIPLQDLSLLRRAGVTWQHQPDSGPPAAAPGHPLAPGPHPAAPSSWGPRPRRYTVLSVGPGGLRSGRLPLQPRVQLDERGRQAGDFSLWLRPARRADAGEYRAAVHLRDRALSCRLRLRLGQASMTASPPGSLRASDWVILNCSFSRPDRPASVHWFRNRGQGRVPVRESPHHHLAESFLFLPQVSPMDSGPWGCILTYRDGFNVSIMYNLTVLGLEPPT
Experiment [4] concerns the target human LAG-3 domain 1-2 Fc fusion, point mutation #58 P115A (human) (UniProt P18627).
Experiment [5] deals with human LAG-3 domain 1-2 Fc fusion, point mutation #70 G130A (human) (UniProt P18627).
human LAG-3 domain 1-2 Fc fusion, point mutation #70 G130A (human), sequence (P18627 23-266 G130A): as the sequence (P18627 23-266 R129A) above, with A107R, G108A counted along it

human LAG-3 domain 1-2 Fc fusion, point mutation #18 P67A (human), sequence (P18627 23-266 P67A): as the sequence (P18627 23-266 R129A) above, with P45A, A107R counted along it
human LAG-3 domain 1-2 Fc fusion, point mutation #33 P86A (human), sequence (P18627 23-266 P86A): as the sequence (P18627 23-266 R129A) above, with P64A, A107R counted along it
human LAG-3 domain 1-2 Fc fusion, point mutation #58 P115A (human), sequence (P18627 23-266 P115A): as the sequence (P18627 23-266 R129A) above, with P93A, A107R counted along it

As to Fab fragment of 25F7-Lag3.5 analogue, the KD mutant/KD wild type in experiment [1] was determined as 2.7 fold; in experiment [2] it was 1.1 fold; in experiment [3], 1.2 fold; in experiment [4] it was 1 fold; in experiment [5], 1.3 fold.

(Values after patent US20220363757A1.)
